These are literature values, as cited in PMC2725201.

Like-named read-outs stand apart in the source and are kept apart here.

The target in one data set is C3a C3a (Homo sapiens) (UniProt P01024).
The target in data set [1] is C5a C5a (Homo sapiens) (UniProt P01031).
For data set [2] the target is unchanged. The source holds these as a separate data set.
The target of data set [3] is C5a-desArg C5a-desArg (Homo sapiens) (UniProt P01031).
Chain of C5a-desArg C5a-desArg (Homo sapiens) (P01031 678-750): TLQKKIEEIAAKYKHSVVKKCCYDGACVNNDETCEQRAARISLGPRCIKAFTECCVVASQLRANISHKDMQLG

Chain of C5aR (P21730 whole entry): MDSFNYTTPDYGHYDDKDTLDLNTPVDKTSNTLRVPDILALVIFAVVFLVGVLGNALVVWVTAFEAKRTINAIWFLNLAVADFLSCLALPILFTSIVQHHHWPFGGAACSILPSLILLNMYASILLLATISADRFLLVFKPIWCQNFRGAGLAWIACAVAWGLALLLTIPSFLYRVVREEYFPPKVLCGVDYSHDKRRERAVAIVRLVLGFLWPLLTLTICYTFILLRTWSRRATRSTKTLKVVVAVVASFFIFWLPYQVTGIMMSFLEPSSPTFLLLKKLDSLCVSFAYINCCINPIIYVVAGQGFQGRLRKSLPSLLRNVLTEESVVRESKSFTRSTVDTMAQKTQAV
Chain of C5a C5a (Homo sapiens) (P01031 675-754): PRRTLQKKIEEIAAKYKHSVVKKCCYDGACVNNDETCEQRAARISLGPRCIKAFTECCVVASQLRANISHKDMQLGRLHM
Chain of C3aR (Q16581 whole entry): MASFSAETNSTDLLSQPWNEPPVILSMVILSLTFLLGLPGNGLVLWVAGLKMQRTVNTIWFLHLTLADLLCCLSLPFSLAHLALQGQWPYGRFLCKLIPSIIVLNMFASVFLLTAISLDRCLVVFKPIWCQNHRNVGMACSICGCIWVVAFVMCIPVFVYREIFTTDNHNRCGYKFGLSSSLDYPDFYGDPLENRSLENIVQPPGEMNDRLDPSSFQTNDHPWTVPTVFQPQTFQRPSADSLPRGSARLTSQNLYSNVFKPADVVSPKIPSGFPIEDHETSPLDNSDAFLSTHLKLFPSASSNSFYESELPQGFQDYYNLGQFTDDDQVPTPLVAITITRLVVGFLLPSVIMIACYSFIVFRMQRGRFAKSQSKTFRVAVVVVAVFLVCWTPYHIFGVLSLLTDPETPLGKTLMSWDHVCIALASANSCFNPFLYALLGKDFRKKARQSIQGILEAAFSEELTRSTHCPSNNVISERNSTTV
Chain of C3a C3a (Homo sapiens) (P01024 669-751): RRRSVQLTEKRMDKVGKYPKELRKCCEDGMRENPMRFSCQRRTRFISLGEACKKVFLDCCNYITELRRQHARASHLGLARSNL
Chain of C5L2 (Q9P296 whole entry): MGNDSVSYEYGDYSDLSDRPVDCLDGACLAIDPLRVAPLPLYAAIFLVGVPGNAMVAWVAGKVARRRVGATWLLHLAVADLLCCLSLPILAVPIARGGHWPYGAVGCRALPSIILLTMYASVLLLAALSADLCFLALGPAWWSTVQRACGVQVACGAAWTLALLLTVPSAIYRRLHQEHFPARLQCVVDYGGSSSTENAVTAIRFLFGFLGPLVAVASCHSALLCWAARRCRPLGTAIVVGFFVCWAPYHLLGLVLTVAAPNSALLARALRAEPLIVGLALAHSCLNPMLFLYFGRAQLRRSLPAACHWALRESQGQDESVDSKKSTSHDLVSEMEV

For the substance C3aR (from UniProt Q16581), the Kd (usually the free concentration of one partner at which half of the binding sites on the other are occupied at equilibrium, for simple one-to-one binding) with C3a C3a (Homo sapiens) was 1 nM.
For the substance C5L2 (from UniProt Q9P296), in the data set with C5a C5a (Homo sapiens) [1], the Kd was 2.5 nM.
As for C5aR (from UniProt P21730), the values for the Kd (with C5a C5a (Homo sapiens) [2]; in data set [3]) were 1 nM and 660 nM, respectively.
